According to PMC4250405:

Target: taxol-stabilized microtubules (UniProt Q6B856)
Test: optical trap bead assay

MT binding time of diffusive beads: 54.3 s
Substance: p150^Glued fragment p150 1-555 (from UniProt P28023 1-555) (domain or fragment)
